Experiment [1] deals with T1, recombinant fusion protein comprised of the C-terminal extracellular domain of CD72 (aa 117-359) fused to a … (human, UniProt P21854 117-359, biotinylated (on the Fc domain; site not stated)).
T1 construct: range 117-359; Expressed in mammalian cells; CD72 is a type II protein, so the Fc may be N-terminal; also called CD72-Fc; CD72-ECD-Fc; not shown: human Fc domain
T1 sequence (looked up): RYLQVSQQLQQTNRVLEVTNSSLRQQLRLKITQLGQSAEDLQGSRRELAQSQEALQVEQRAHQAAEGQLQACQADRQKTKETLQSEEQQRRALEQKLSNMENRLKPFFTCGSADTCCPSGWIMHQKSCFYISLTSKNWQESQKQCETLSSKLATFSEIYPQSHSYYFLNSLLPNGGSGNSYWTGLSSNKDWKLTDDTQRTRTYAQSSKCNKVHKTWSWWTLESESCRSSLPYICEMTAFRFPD
The experiment can be described thus: on-yeast affinity measurement, flow cytometry, titration of CD72-Fc. The source says:
FIG. 4a-e: Isolation of high-affinity CD72 nanobodies with yeast display (a) Schematic of workflow for in vitro anti-CD72 nanobody selection using yeast display. (b) Structure models of the recombinant Fc-fusion proteins used to perform yeast display selections. The Fc protein on the left was used to negatively select potential off-target nanobodies while the CD72-Fc protein (CD72 extracellular domain fused to a human Fc domain) was used to perform positive selection steps to isolate CD72-specific nanobodies (c) Schematic displaying the nanobody yeast display selection strategy for each MACS and FACS selection round to enrich for CD72-specific nanobody binders. Two rounds of MACS followed by four rounds of FACS with decreasing concentration of CD72 antigen produced high affinity anti-CD72 nanobodies. (d) On-yeast binding of recombinant CD72-Fc fusion protein for CD72-selected nanobodies Nb.B5 (nanobody sequence SEQ ID NO:2) and Nb.C2 (nanobody sequence SEQ ID NO:1) expressed on yeast to determine estimated binding affinities. Kd determined by curve fitting using non-linear least squares regression. (e) Flow cytometry plots of yeast clone Nb.C2 binding to 10 nM CD72-ECD-Fc protein (left) or 10 nM Fc protein (right). […]
(A flow cytometer gives signals particle by particle.)

For experiment [2], the target named is T2, recombinant fusion protein comprised of the C-terminal extracellular domain of CD72 (aa 117-359) fused to a … (human, UniProt P21854 117-359, biotinylated (on the Fc domain; site not stated)).
T2 chain: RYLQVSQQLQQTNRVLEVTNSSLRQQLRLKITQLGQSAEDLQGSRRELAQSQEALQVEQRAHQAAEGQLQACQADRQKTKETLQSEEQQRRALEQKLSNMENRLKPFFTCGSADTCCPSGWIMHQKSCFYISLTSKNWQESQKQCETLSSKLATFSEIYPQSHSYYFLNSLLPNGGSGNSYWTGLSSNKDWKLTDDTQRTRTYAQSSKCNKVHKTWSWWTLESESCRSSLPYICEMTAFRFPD
The experiment can be described thus: on-yeast binding (yeast display titration).

B1: Nb.C2 (VHH)
VHH: QVQLQESGGGLVQAGGSLRLSCAASGTIFDWYSMGWYRQAPGKERELVAGIDTGANTYYADSVKGRFTISRDNAKNTVYLQMNSLKPEDTAVYYCAAHDDGDPWHVYWGQGTQVTVSS
notes: display was detected with anti-HA-FITC; also called yeast clone Nb.C2
As for B1, in experiment [1], the binding result is “binds”. Besides, the Kd (usually the constant that tells how readily two partners part at equilibrium) in experiment [2] is 1.5 nM.

B2: Nb.B5 (VHH)
VHH: QVQLQESGGGLVQAGGSLRLSCAASGTIFPVDYMGWYRQAPGKERELVAGINYGSNTYYADSVKGRFTISRDNAKNTVYLQMNSLKPEDTAVYYCAAWQPEGYAVDFYHPYWGQGTQVTVSS
For the molecule B2, in experiment [1], the binding result was “binds”. Besides, in experiment [2], the Kd was 1 nM.
